A protein production outcome set (Wang et al. 2014)
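Also: failed if final PepcDB status was selected cloned or expressed and not failed if soluble or beyond.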

Assay: label from the status in PepcDB records
With “MLTGNKPAVQRRFIGLLMLSVLVAGCSSNPLANFAPGYPPTIEPAQPAVSPPTSQDPAGAVRPLSGHPRAALFDNGTRQLVALRPGADSAAPASIMVFDDVHVAPRVIFLPGPAAALTSDDHGTAFLAARGGYFVADLSSGHTARVNVADAAHTDFTAIARRSDGKLVLGSADGAVYTLAKNPAVDPASGAATVASRTKIFARVDALVTQGNTTVVLDRGQTSVTTIGADGHAQQALRAGQGATTMAADPLGRVLIADTRGGQLLVYGVDPLILRQAYPVRQAPYGLAGSRELAWVSQTASNTVIGYDLTTGIPVEKVRYPTVQQPNSLAFDETSDTLYVVSGSGAGSRFIEHAAGTR” the protein production was “failed”.
For “MLTLIKRTVLAAGLIGTTLGAAAQPPRAYPLKDFFRNPERGYFRLADDGKTLGFMQPVSIDGQPPRMNIYVQALADGVPAGEPRKLTSETARDISNFFWKGDDTVLYQKDFGGDENFHVLAVNARTGQVADLTPYEGVRASIEDDLPDDPDHVLISHNRRDPQVFDVYRVNVRTGAAELVAQNPGNVVGWQTDHAGKVRAAITSDGLNTTLLYRDDEAAPFRPLITTDYRVSVSPAFFTFDDRKLYALSNRGRDKLALVVIDPATPDVEQPVFEPDEVDLDAAGYSRKRKVLTVASYQTDKPRHRFFDAETEALYARLARALPGYDFALQGWNRDEDTFIVAAYNDRTPGSRYLYDARRDSLHKLADINPAIPEADMAPVRPVSYQSRDGLTIHGYLTLPAGRAPRNLACIVNPHGGPWARDGWGYNPEVQFLANRGFCVLQMNFRGSTGYGRKFWEAGFGQWGLKMQDDITDGVQWLIDQGIADPRRIGIYGGSYGGYATLAGVAFTPDLYAAAVDYVGVSNLFTFMNTIPPYWKPLLAKMQDMVGDPVRDKARLEATSPALHVDRIKTPLFIAQGAKDPRVNKAESDQVVQALRQRGVEVEYMVKDNEGHGFHNDENKFEFYAAMEKFFTEHLKP”, the protein production was “failed”.
For “MLTRYLAIAAIALALTGLGGCSVNPVTGEKQLSLISENQELALGAEQYTPTQQTQGGRFYIDPELSIYVRDVGQKLARVSDRPDLPYEFVVLNNSVPNAWALPGGKIAINRGLLVELEDEAQLASVLGHEIVHAAARHSVQRMQQGMLISAGVAGLGFALSDNEWAGLIMGGAALGAQLALAQYSQGDELESDAYGIRYMKEAGYDPQAAVELQQLFLKLSEGRQSGWLDGLFATHPPSAKRVQENQELVQNIGSGGYRGRDVYQRRIAKLKELQPAYDAHDEAMKLASEGKFEAALDQVNKAIKLEPREAMLFALRGRIYRGMEQPEKAKADFDKAVSLYPEMFQYQLYSGLNELELNNLGKAKTHLEKANQVVPTSIAYLRLGDIARQQGQRSEAVAYYSTAAEAGGDVGAEAQRKLAELSN”, the protein production was “failed”.
In the case of “MLTVKQRETDCPMDLNTLISQYGYAALVIGSLAEGETVTLLGGVAAHQGLLKFPLVVLSVALGGMIGDQVLYLCGRRFGGKLLRRFSKHQDKIERAQKLIQRHPYLFVIGTRFMYGFRVIGPTLIGASQLPPKIFLPLNILGAFAWALIFTTIGYAGGQVIAPWLHNLDQHLKHWVWLILVVVLVVGVRWWLKRSGKKKPDHQA”, the protein production is reported as “failed”.
For “MLTYQVKQGDTLNSIAADFRISTAALLQANPSLQAGLTAGQSIVIPGLPDPYTIPYHIAVSIGAKTLTLSLNNRVMKTYPIAVGKILTQTPTGEFYIINRQRNPGGPFGAYWLSLSKQHYGIHGTNNPASIGKAVSKGCIRMHNKDVIELASIVPNGTRVTINR”, the protein production was “not failed”.
In the case of “MLVAAQQQGPPMPRPSHLMILALTAAALYIYALASDNTMLALMAKPIPVLALIAWLRSTPVSPYRTWISIGLGFSVLGDILLAIPADLFVFGLAAFLCAHLAYLRGYCGITLRPALPALIFSAITGIALLGVLASNGLGPLLIPVALYALAISAMLWRALACGGVAALGAGLFVFSDSLIGIDRFISPFAAAPYLIILAYWLGQWAIASSVGHRSTDKVLTQSGARRTESC”, the protein production is reported as “failed”.
For “MLVAPFASQLPFVEETLHSSYQALQWGKNIFAIAHKTLSARLLNTVFPTEERTQPLSPELQAWLKERYEALLQQDWQDAAAGFYPATLLFDAPWEEFLRFYPLLLLDLPQMWQRARSRQFQEFAHNVRLEDYPQYYRQNFHYQTDGYLSDTSANLYDIQVELLFGGTADAMRRRVIAPIAQQVVAHPPTPPLRILDVACGTGRTLKQLRYAFPGAVLFGLDLSPAYLRKANALLATQTGALPQLIQGNAESLPYVDSYFSAITCVFLFHELPAPVRQNVIHECARVLQPGGIFVICDSIQSLDSPEQRPMMENFANLFHEPFYRNYIEDDLNLRLEKAGLVVKEVQHHFMSKYWVAVKPSLEHHHHHH”, the protein production was “failed”.
For “MLVCYSVLACEILWDLPCSIMGSPLGHFTWDKYLKETCSVPAPVHCFKQSYTPPSNEFKISMKLEAQDPRNTTSTCIATVVGLTGARLRLRLDGSDNKNDFWRLVDSAEIQPIGNCEKNGGMLQPPLGFRLNASSWPMFLLKTLNGAEMAPIRIFHKEPPSPSHNFFKMGMKLEAVDRKNPHFICPATIGEVRGSEVLVTFDGWRGAFDYWCRFDSRDIFPVGWCSLTGDNLQPPGTKVVIPKNPYPASDVNTEKPSIHSSTKTVLEHQPGQRGRKPGKKRGRTPKTLISHPISAPSKTAEPLKFPKKRGPKPGSKRKPRTLLNPPPASPTTSTPEPDTSTVPQDAATIPSSAMQAPTVCIYLNKNGSTGPHLDKKKVQQLPDHFGPARASVVLQQAVQACIDCAYHQKTVFSFLKQGHGGEVISAVFDREQHTLNLPAVNSITYVLRFLEKLCHNLRSDNLFGNQPFTQTHLSLTAIEYSHSHDRYLPGETFVLGNSLARSLEPHSDSMDSASNPTNLVSTSQRHRPLLSSCGLPPSTASAVRRLCSRGVLKGSNERRDMESFWKLNRSPGSDRYLESRDASRLSGRDPSSWTVEDVMQFVREADPQLGPHADLFRKHEIDGKALLLLRSDMMMKYMGLKLGPALKLSYHIDRLKQGKF”, the protein production was “failed”.
With “MLVEDSGHHLPESADIENALDLLLKAQLERAFGPELAEHFWAARQPRTLDERLAFIRKCWIGVFKDSPLSTFGLERLEQLERLCRSKRRGRELSAAEHHQFAEELARLWEQVQRLLPRAAPETSYASSASAGGVHSGDAHTPATLSDAESAHAAPEAMRIEAPATSARSASGCMARVSSDVAAAATNVSLVVLDGENIAWAHGQNAVFSPKGIAIAVDFFRKRGYRCVVFLPDYRRKRADLPTVSASDALVFVPAGEYDDTFALGYAVGHDAILVTNDLLQDHLDQFYPDEGEAREALRKWLGSHRCSFTFVGDEFLPNPHFFLP” the protein production was “failed”.
In the case of “MLVFLTRFTPMNLIRNRWAQIFTQSILGVLIAGGTAWAGDPFRPNNPHNIGDQTEAAFEAIFRDGNYRGAEEILAGAIQAEPNEPLVYAMQASFAYDANDMEGMRKYAQQTLESAQRLAPSDPLRGNLYIAVGHFLEGSYLLKKGSYLQAVGKTGTVFEHLDKASAINPNDPELNLLRGYLDLFLSRYTPFSQSEQVISRFEQYAAPDYLRYRALATTYRDLEKYDLAMANIDRALAITPDNPELQYLKGQFLRNEGRRSMDLGKLQQAQQYYAMALQKQDQLSRALVVQLNHENNAVVDEIQKLAQNPSLKGF”, the protein production is reported as “failed”.
For “MLVGPAPTTDGSAENTLNEKRLVHGSIAFWLGPRAPQTKTHRWTVYVRGARDPLEDLSLYIQKVEFVLHESFADPVRVVKEPPFCLTEHGWGEFEVIIRLFPISDPDKPVEMYHPLRLFPSVGQELTEKPVVSEHLDVLVFSQPAPEVERALHRSDVARMPSDCWGDLMPLFGGDLHQVEEEDLRKVQQARERVRQQIQATRLQYEALTAELARARTHALHRELS”, the protein production was “not failed”.
In the case of “MLVGSQLIEIVIDSLRYENLKEILDEMFRDEVQKLKYFLEDVKEEDEELYNKIVDALKLFKENYEIEDIKIPKKIRVFLVKNNILFLNPQKGSLKPQSYLVWNAIKMLL”, the protein production is reported as “failed”.
With “MLVRLKETDQRTMISRIKALAPPVQKAGAALLIDGHAELVARGGADGAHLPGIAALKEALPSLKPDRIAGVGGLTTRHHSMDAGEIGADYLLFGEPDAKGQRPSSEAIAERLDWWAELFEPPCVGFATSLEEAYDFAASGADFVLVGEFVWADPRGAKAALIEADATIKKAHAAALASQNPAGEHG” the protein production was “failed”.
For “MLVRLTMICNGATAATRRGSFPLDEPLEPRSLTRAKAMRGTLRHADRAWTAPALRARQIAEALSLEAAVEPLLADQDHGSWAGKSFEDVQAEQPGDIAAWLADPDAAPHGGESLADVARRASGLMEKLMAEPGHTIAMTHASVIRTAIVHVLGAPLAACWKIDIEPLSITDFRSDGRRWVLRACGVTSPKAAKPLLR”, the protein production was “failed”.
In the case of “MLVTKLAPDFKAPAVLGNNEVDEHFELSKNLGKNGAILFFWPKDFTFVCPTEIIAFDKRVKDFQEKGFNVIGVSIDSEQVHFAWKNTPVEKGGIGQVTFPMVADITKSISRDYDVLFEEAIALRGAFLIDKNMKVRHAVINDLPLGRNADEMLRMVDALLHFEEHGEVCPAGWRKGDKGMKATHQGVAEYLKENSIKL”, the protein production is reported as “failed”.
For “MLWTQVYDPFSNITLSAMVAMLPLAILFYMLAVRRAKGHVAAACGLAGAFAATVAVWGMPAGLAVNATLYGVAMGLFPIIWIVLTAVWLYNMTVESGEFEIIKSSLARLTDDRRLQALFIAFAFGAFLEGTAGFGTPVAITAAMLMGLGFSPVYAGGICLIANTAPVAFGALGIPVIVASQVSGLDTLTLSQYVGRQLPVFSLIVPLWMTVVMCGFKRTMEVMPAIVVASVCFSGTQFIFADWHGPTLPDVMAAIVTIVGLLVLLRFWKPARTWHFADEKPEAATGETRHSTGEVLRAWAPYAILAVFVFFWGLGSVKTFLNNIFIMSFEWPGLHAAIAKTAPIVKADAPYAAKFTFNLISAGGTAILFAGLLSVPVMPGYGYGRAFGCLARTCYQLRFPILTIVMILGLAQLMNYSGMSSTLGIAFTHTGALFPFFAPIMGWLGVFLTGSNTSSNALFGSMQHATASAVGVDPYLTVAANATGGVTGKMISPQSISVATASTHTVGQEGALFRFALKHSIAMTLVICVLVTLQAYVIPWMLPAR”, the protein production was “failed”.
With “MLYDLTVVQFSKMLKNLNAIFDKAEAFAELKKVDMDVLLNSRLAADQFNLIRQVQIACDTAKVGVARLTGQLETAPKHDDSETTLAELRQRIASVLTYLEGFSEADFANAATIQISQPRWQGKYLTGYEFAIEHAIPNLYFHITTAYGILRHNGVEVGKKDYLGAMPYKAPIL” the protein production was “not failed”.
For “MLYLAELLQGKNALITGAGRGIGRAVAIALAKEGVNVGLLARSEENLKAVAKEVEAEGVKAVIATADVSSYEEVTTAIETLKNGLGSIDILINNAGISKFGKFLELDVADWEKIIQVNLMGVYYATRAALPSMIEQQSGDIINISSTAGQKGAPVTSAYSASKFGVLGLTESLAMEVRKHNIRVTALTPSTVATDMAVDLGLTDGNPDKVMQAEDIAEFIVAQLKLNKRTFIKSAGLWSTNP”, the protein production was “failed”.
In the case of “MLYPSKPNNEALRIQTLRELNVLDTSPEERFDRLTRLAKRLFNVPIALVSLVDADRQWFKSCVGLDVSETSRDISFCGHAILGDQILTVPDAGLDERFHDNPLVVGAPGIRFYAGCPLTVTNGSKLGTLCLIDIKPRDLDDEDRALLRDLARMAEQELAAVQMASMDELTLLSNRRGFEALARHALGVCKRLEKPATLLFFDLNDFKQINDTYGHAEGDGALKTFADVLRIAFRESDVIGRLGGDEFVALLTAADHVETSAIMARLREILDERNATLKRGYDIRFSVGQIEYDAERHPDIEALLADADKAMYLHKQASKRARLEHHHHHH”, the protein production is reported as “failed”.
For “MMAACWFGCAPAAELHAYTEDVPPLNYLDNGNVKGYSTEVLQLVAREAGFNLTVEVLPWLRAYAKARDTAGGLLYTVVRTPEREAQFQWVGPIGSRRIYMYRLGPRGNIRVDAASDLTRYRNGVLTGSATASQLQALGLQSGLNLDLGQSDAVNLKKLLLKRVDLIAMLDWAMAWQLRLQRLPENTVAPAWLLDGKLQYWFALNPHTPPEQVAKLQAALDRIRADGRLQAIRRRYRDD”, the protein production was “failed”.
With “MMAAREQRSFRQLSLLRQFEGQSLLCASMNIPGPIKCSESLNKTFQSIINLVKEDLRGRIIFEREVHQKTGWEYYCLSDLPVSELKTKMIAIETKISIGRLMDLDVLHLVNGIPQPISRQELGFPRRQCYICQNDAKVCSRSRKHSVIEMQEAIAKFIKINH” the protein production was “failed”.
